Source: patent US20230348588A1 (published 2023)
Numbering of substitutions follows the chain as printed.

T1: extracellular domain (ECD) of recombinant human Sortilin with a C-terminal HIS tag (ECD-huSortilin-HIS) (human, UniProt Q99523 78-755)
T1 construct: Bought (R&D Systems); also called human sortilin-ECD
T1 sequence: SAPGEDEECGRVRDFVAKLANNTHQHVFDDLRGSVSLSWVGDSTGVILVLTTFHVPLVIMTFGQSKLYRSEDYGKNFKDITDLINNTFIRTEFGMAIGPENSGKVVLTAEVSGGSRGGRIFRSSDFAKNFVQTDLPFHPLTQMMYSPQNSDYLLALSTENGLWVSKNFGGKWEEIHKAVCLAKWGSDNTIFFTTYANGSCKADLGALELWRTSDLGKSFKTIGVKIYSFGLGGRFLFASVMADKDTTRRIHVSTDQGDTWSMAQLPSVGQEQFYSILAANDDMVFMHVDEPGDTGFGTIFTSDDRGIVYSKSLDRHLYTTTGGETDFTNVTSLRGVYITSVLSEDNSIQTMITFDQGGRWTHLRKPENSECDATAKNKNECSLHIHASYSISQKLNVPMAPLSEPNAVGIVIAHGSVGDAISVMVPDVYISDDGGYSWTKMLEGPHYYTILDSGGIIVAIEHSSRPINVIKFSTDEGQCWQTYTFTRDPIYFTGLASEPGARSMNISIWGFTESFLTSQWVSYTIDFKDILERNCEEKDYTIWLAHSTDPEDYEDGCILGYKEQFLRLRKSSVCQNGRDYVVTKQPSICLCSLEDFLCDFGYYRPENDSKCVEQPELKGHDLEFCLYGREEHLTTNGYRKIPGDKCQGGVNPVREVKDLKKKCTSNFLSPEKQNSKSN

B1: mouse monoclonal antibody 2P22 (antibody, mouse IgG2b, V domains shown)
VH: EVQLVESGGDLVKPGGSLKLSCAASGFTFSIYGMSWVRQTPDKKLEWVAAISSGGIYTYYPDSVKGRFTISRDNAKNTLYLQMSSLKSADTAMYYCTRNDYDWFAYWGQGTLVTVSA
VL: DIQMTQSPSSLSASLGERVSLTCRASQDIGSSLNWLQQEPDGTIKRLIYATSSLDSGVPKRFSGSRSGSDYSLTISSLESEDFVDYYCLQYASSPYTFGGGTKLEIK
B2: mouse monoclonal antibody 5E20 (antibody, V domains shown)
VH: EVQLVESGGDLVKPGGSLKLSCAAPGFTFSTYGMSWVRQTPDKRLEWVAIISSGGSYTYYSDTVKGRFTISRDNAKNTLYLQMSSLKSEDTAMYYCSRSSSHWYFDVWGTGTTVTVSS
VL: DILMTQSPSSMSVSLGDTVSITCHASQGISSNIGWLQQKPGKSFKGLIYHGTNLKDGVPSRFSGSGSGADFSLTISSLESEDFADYFCVQYAQFPYTFGGGTKLEKR
notes: also called murine 5E20; m5E20
B3: mouse monoclonal antibody 2C14 (antibody, mouse IgG1, V domains shown)
VH: EVQLVESGGDLVKPGGSLKLSCAASGFTFNTHGMSWVRQTPDKSLEWVATISTGGFYTSYPDSVKGRFTISRDNAKNTLFLQMSSLKSEDTAMYYCAKSSSHWYFDVWGTGTTVTVSS
VL: B2 VL with K55E, F71Y, S80Y, F87Y, Q93H, K106I, R107K
B4: mouse monoclonal antibody 6B15 (antibody, mouse IgG1, V domains shown)
VH: B2 VH with Y80N, Y95F
VL: B2 VL with S7F, A69T, F87Y
B5: mouse monoclonal antibody 11M14 (antibody, V domains shown)
VH: EVQLVESGGDLVKPGGSLKLSCAASGFTFNIYGMSWVRQTPDKRLEWVATISSGGIYTYYPDILKGRFTISRDNAKNTLYLQMSSLKSEDTAMYYCARHPGGAMDYWGQGTSVTVSS
VL: DIQMTQSPASLSVSVGETVTITCRVSENIYSNLAWYQQKQGKSPHLLVYAATNLADGVPSRFSGSGSGTQYSLKINSLQSEDFGSYYCQHFWGTPPWTFGGGTKLEIK
notes: also called murine 11M14; m11M14
B6: mouse monoclonal antibody 2F18 (antibody, mouse IgG1, V domains shown)
VH: B5 VH with S53T, I63S, L64V, G101V, M104L
VL: B5 VL with M4V, V25A, A50T, N53T
B7: mouse monoclonal antibody 8H24 (antibody, V domains shown)
VH: QAYLQQSGTELVRPGASVKMSCKASGYTFTSYSMHWVKQTPRQGLEWIGAIYPGNDATSYNQKFKGKATLTVDKSSSTAYMQLSSLTSEDSAVYFCAREGYYGSSFEAWFASWGQGTLVTVSA
VL: DVLMTQTPLSLPVSLGDQASISCRSSQSIVHSNGNTYLEWYLQKPGQSPKLLIYKVSNRFSGVPDRFSGSGSGTDFTLKISRVEAEDLGVYYCFQGSHVLPTFGGGTKLEIK
notes: also called murine 8H24; m8H24
B8: chimeric 5E20 (antibody, human IgG1, kappa, L234A L235A, V domains shown)
VH: B2 VH
VL: DILMTQSPSSMSVSLGDTVSITCHASQGISSNIGWLQQKPGKSFKGLIYHGTNLKDGVPSRFSGSGSGADFSLTISSLESEDFADYFCVQYAQFPYTFGGGTKLEIKR
B9: chimeric 11M14 (antibody, human IgG1, kappa, L234A L235A, V domains shown)
VH: B5 VH
VL: DIQMTQSPASLSVSVGETVTITCRVSENIYSNLAWYQQKQGKSPHLLVYAATNLADGVPSRFSGSGSGTQYSLKINSLQSEDFGSYYCQHFWGTPPWTFGGGTKLEIKR
B10: hu8H24VHv2/hu8H24VLv2 (antibody, V domains shown)
VH: QAQLVQSGAEVVKPGSSVKVSCKASGYTFTSYSMHWVRQAPGQGLEWIGAIYPGNDATSYNQKFKGRATLTVDKSTSTAYMELSSLRSEDTAVYFCAREGYYGSSFEAWFASWGQGTTVTVSS
VL: B7 VL with L3V, L9S, S14T, L15P, D17E, Q18P, K50Q, K79T, L88V, L109V
notes: Humanized variable regions; also called 8H24H2L2
B11: hu8H24VHv2/hu8H24VLv1 (antibody, V domains shown)
VH: B10 VH
VL: B7 VL with L3V, S14T, L15P, D17E, Q18P, K50Q, L88V, L109V
notes: Humanized variable regions; also called 8H24H2L1

Target: T1, extracellular domain (ECD) of …
Experiment: SPR (Biacore T200), mAb captured on anti-mouse chip, sortilin as analyte, global 1:1 fit
Method: Analysis was performed using a Biacore T200 to compare the binding affinity of murine anti-huSortilin antibodies to recombinant human Sortilin. Anti-mouse antibody was immobilized on sensor chip CM5 (GE Healthcare Life Sciences) via amine coupling, and mouse antibodies (ligand) were captured to a level to ensure a maximum binding of analyte of 50 RU (approximately 100RU of ligand binding). Various concentrations of Sortilin (ranging from 0.1 nM to 300 nM) were passed over the captured ligand at 50 µL/min in running buffer (HBS + 0.05% P-20, 1 mg/mL BSA) for 180-300 s association time and 300-900 s dissociation time. Regeneration of the chip surface was accomplished by 2 short injections of 10 mM Glycine-HCI at pH 1.7. Data was blank subtracted to both a sensor not containing ligand and 0 nM analyte concentration. Analysis was performed using a global 1:1 fit with Biacore Insight Evaluation software (v2.0) with bulk refractive index set to zero RU.

Row | Binder | koff [s⁻¹] | kon [M⁻¹ s⁻¹]
1 | B1 | 0.000237 | 108000
2 | B2 | 0.000139 | 87700
3 | B3 | 0.00245 | 208000
4 | B4 | 0.00013 | 127000
5 | B5 | 0.000569 | 91100
6 | B6 | 0.000162 | 57600
7 | B7 | 0.00044 | 96600

Target: T1, extracellular domain (ECD) of …
Experiment: SPR (Biacore T200), mAb captured on anti-human chip, sortilin as analyte, global 1:1 fit
Method: Analysis was performed using a Biacore T200 to compare the binding affinity of chimeric and humanized antibodies to recombinant human Sortilin. Anti-Human antibody was immobilized on sensor chip CM5 (GE Healthcare Life Sciences) via amine coupling, and humanized antibodies (ligand) were captured to a level to ensure a maximum binding of analyte of 50 RU (approximately 100 RU of ligand binding). Various concentrations of Sortilin (ranging from 0.1 nM to 300 nM) were passed over the captured ligand at 50 µL/min in running buffer (HBS + 0.05% P-20, 1 mg/mL BSA) for 300 s association time and 1200 s dissociation time. Regeneration of the chip surface was accomplished by 2 short injections of 3 M MgCl. Data was blank subtracted to both a sensor not containing ligand and 0 nM analyte concentration. Analysis was performed using a global 1:1 fit with Biacore Insight Evaluation software (v2.0) with bulk refractive index set to zero RU.

Row | Binder | koff [s⁻¹] | kon [M⁻¹ s⁻¹]
8 | B8 | 0.000396 | 597000
9 | B9 | 0.000969 | 384000
10 | B10 | 0.0025 | –
11 | B11 | 0.00257 | –
